# In article PMC5037575:
# Target: PB2 polymerase subunit fused to Gluc1, of recombinant WSN virus (WSN-PB2-Gluc1) (UniProt P03427)
# Conditions: parent: est. 100; read off a plot
substance,measurement,value
Gluc2-DDX19B wild type (from UniProt Q9UMR2) R428Q,percent of parent,68%
